This note sets out measurements from patent US20230105029A1 (CHIA TAI TIANQING PHARMACEUTICAL GROUP, published 2023).

By Kd is commonly meant the free concentration of one partner at which half of the binding sites on the other are occupied at equilibrium, for simple one-to-one binding. By koff is commonly meant the rate constant with which the complex falls apart. Usually kon stands for a measure of how fast the partners come together.

Substitutions are numbered along the chain they refer to.

B1: huC2C1A1A1-V8 (antibody, human IgG4 S228P, kappa, V domains shown)
VH: EVQLVESGGGLVQPGGSLRLSCAASGFTFSTYGMSWVRQSPDKRLEWVSTINSNGGSTSYPDSVKGRFTISRDNAKNTLYLQMRSLRAEDTAVYYCARFFRFRNAMDYWGQGTLVTVSS
VL: DIQMTQSPSSLSASVGDRVTITCRTSENIYSYLAWYQQKPGKAPKFLIYNAKTLAEGVPSRFSGSGSGTDFTLTISSLQPEDFATYYCQHYYGPPTWTFGQGTKVEIKR
notes: Humanized, human IgG4/kappa
B2: huC2C1A1A1-V6 (antibody, human IgG4 S228P, kappa, V domains shown)
VH: B1 VH
VL: DIQMTQSPSSLSASVGQRVTITCRTSENIYSYLAWYQQKQGKPPRFLIYNAKTLAEGVPSRFSGSGSGTEFTLTITSLQAEDFGVYYCQHYYGPPTWTFGPGTKLEIKR
notes: Humanized, human IgG4/kappa
B3: huC2C1A1A1-V10 (antibody, human IgG4 S228P, kappa, V domains shown)
VH: B1 VH with S40A, D42G, R44G, E46V, W47L, S49A, R84N
VL: B2 VL
notes: Humanized, human IgG4/kappa
B4: huC2C1A1A1-V11 (antibody, human IgG4, V domains shown)
VH: B1 VH with S40A, D42G, R44G, E46V, W47L, S49A, R84N
VL: B1 VL with I48V
notes: Humanized, human IgG4/kappa
B5: huC2C1A1A1-V12 (antibody, human IgG4 S228P, kappa, V domains shown)
VH: B1 VH with S40A, D42G, R44G, E46V, W47L, S49A, R84N
VL: B1 VL
notes: Humanized, human IgG4/kappa
B6: huC2C1A1A1-V16 (antibody, human IgG4 S228P, kappa, V domains shown)
VH: B1 VH with S40A, D42G, R44G, E46V, S49A, R84N
VL: B1 VL
notes: Humanized, human IgG4/kappa
B7: huC2C1A1A1-V13 (antibody, human IgG4 S228P, kappa, V domains shown)
VH: B1 VH with S40A, D42G, R44G, E46V, S49A, R84N
VL: B1 VL with F46L
notes: Humanized, human IgG4/kappa
B8: huC2C1A1A1-V9 (antibody, human IgG4 S228P, kappa, V domains shown)
VH: B1 VH with S40A, D42G, R44G, E46V, W47L, S49A, R84N
VL: B1 VL with F46L
notes: Humanized, human IgG4/kappa

In the assay the target is T1, recombinant human IL4Rα-his protein (in house made) (human, UniProt P24394 26-232, limits assumed).
T1 construct: also called Human IL4Ra-his
As to the kind of experiment: SPR (Biacore), antibody captured, IL4Rα-his flowed.
Regarding B1, the Dissociation % was -1.23%, the “End (RU)” value was found to be 64.4 RU, the dissociation constant Kd was less than 0.036 nM and the “Start (RU)” value is 65.2 RU. The koff is less than 1e-05 s⁻¹ and the kon turned out to be 278000 M⁻¹ s⁻¹.
With B2, the Dissociation % is -0.59%, the “End (RU)” value amounted to 50.6 RU, the Kd is less than 0.0261 nM and the “Start (RU)” value was 50.9 RU. The koff is less than 1e-05 s⁻¹ and the kon was 383000 M⁻¹ s⁻¹.
On to B3, for which the Dissociation % was -1.54%, the “End (RU)” value was found to be 63.9 RU, the Kd was less than 0.0304 nM and the “Start (RU)” value amounted to 64.9 RU. Further, the koff is less than 1e-05 s⁻¹ and the kon amounted to 329000 M⁻¹ s⁻¹.
For B4, the Dissociation % was -0.92%, the “End (RU)” value was determined as 53.7 RU, the dissociation constant Kd is less than 0.0303 nM and the “Start (RU)” value stood at 54.2 RU. For the same molecule, the koff was less than 1e-05 s⁻¹ and the kon is 330000 M⁻¹ s⁻¹.
Consider B5, for which the Dissociation % is -1.88%, the “End (RU)” value was 52.1 RU, the Kd was 0.047 nM and the “Start (RU)” value worked out at 53.1 RU. Also, the koff is 1.42e-05 s⁻¹ and the kon turned out to be 302000 M⁻¹ s⁻¹.
Turning to B6, the Dissociation % is -0.42%, the “End (RU)” value was 47.1 RU, the Kd was less than 0.0338 nM and the “Start (RU)” value came out at 47.3 RU. Besides, the koff was less than 1e-05 s⁻¹ and the association rate constant (kon) came to 296000 M⁻¹ s⁻¹.
As for B7, the Dissociation % is 0.82%, the “End (RU)” value is 36.7 RU, the Kd was less than 0.0838 nM and the “Start (RU)” value amounted to 36.4 RU. Further, the koff was less than 1e-05 s⁻¹ and the kon was 119000 M⁻¹ s⁻¹.
For the molecule B8, the Dissociation % is -0.24%, the “End (RU)” value amounted to 41.1 RU, the Kd was less than 0.0507 nM and the “Start (RU)” value is 41.2 RU. In addition, the koff is less than 1e-05 s⁻¹ and the kon was found to be 197000 M⁻¹ s⁻¹.
